Source: article PMC5768801, “The PII signaling protein from red algae represents an evolutionary link between cyanobacterial and Chloroplastida PII proteins” (Scientific Reports, 2018)

Substrate: CC(=O)N[C@@H](CCC(=O)O)C(=O)O
Test: purified protein, by the assay type
Settings: pH 7.5

B1: ScNAGK (Synechocystis sp. PCC 6803 substr. Kazusa) (protein)
chain: MSSTQDYIGEEAATRVKILSEALPYIQHFAGRTVVVKYGGAAMKDSNLKDKVIRDIVFMASVGIRPVVVHGGGPEINTWLDKVGIEPQFKDGLRVTDAATMDIVEMVLVGRVNKELVNLINQAGGKAVGLCGKDGQLMTARTMTNKDVGFVGEVSSVDARVVETLVKSGYIPVISSVAADEFGQAHNINADTCAGELAAALGAEKLILLTDTRGILRDYKDPSTLIHKLDIQQARELIGSGIVAGGMIPKVTCCVRSLAQGVRAAHILDGRLPHALLLEVFTDLGIGSMIVASGYDL
B1 gave a Km of 16.23 mM.
